Measured values published in paper PMC11485255, “Structure of a fully assembled γδ T cell antigen receptor” (Nature, 2024).

How the values were obtained:
[1] = molecular target: T1, CD3-ε, full length, GFP2-fused (human, UniProt P07766); assay: cryo-EM structure; subunits co-expressed in CHO-S and purified as one complex in detergent; tenfold molar excess of UCHT1 Fab added before a final SEC in 10 mM HEPES pH 7.4, 150 mM NaCl, 0.02% GDN; 3.01 Å consensus map and 3.39 Å TM-focused map; details: both partners purified
T1 construct: CD3-ε, full length; source: CHO-S, lentiviral transduction, co-expressed with the other subunits; purified as the complex from LMNG-solubilised membranes (Strep-Tactin XT, SEC in GDN)
T1 sequence (P07766 23-207): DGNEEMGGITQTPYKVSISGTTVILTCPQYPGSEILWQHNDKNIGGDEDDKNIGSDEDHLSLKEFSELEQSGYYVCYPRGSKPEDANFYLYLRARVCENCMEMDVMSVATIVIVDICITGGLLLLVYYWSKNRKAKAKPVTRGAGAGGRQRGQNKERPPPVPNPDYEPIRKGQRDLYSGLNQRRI

CD3ε on Jurkat T cells = molecular target: T2, CD3ε on Jurkat T cells (human (endogenous in Jurkat), UniProt P07766); assay: flow cytometry on cells; cells pre-incubated with increasing concentrations of UCHT1 Fab, then stained with fluorescent UCHT1 antibody; details: one partner purified
T2 construct: CD3-ε as part of the TCR–CD3 complex at the cell surface; source: endogenous, on Jurkat T cells (TCR transductants)
T2 sequence (P07766 23-207): as above

B1: Fab fragment of the anti-human CD3ε murine antibody UCHT1 (Fab, V domains shown)
VH: EVQLQQSGPELVKPGASMKISCKASGYSFTGYTMNWVKQSHGKNLEWMGLINPYKGVSTYNQKFKDKATLTVDKSSSTAYMELLSLTSEDSAVYYCARSGYYGDSDWYFDVWGQGTTLTVFS
VL: DIQMTQTTSSLSASLGDRVTISCRASQDIRNYLNWYQQKPDGTVKLLIYYTSRLHSGVPSKFSGSGSGTDYSLTISNLEQEDIATYFCQQGNTLPWTFAGGTKLEIK
notes: VH domain of UCHT1; C-γ1 domain of murine IgG1, residues 1-103 of P01868-1; Vκ domain of UCHT1; murine constant kappa domain; Both chains were expressed under a modified cPTPRσ signal peptide ([residues removed], last two residues changed for a KpnI site); also called UCHT1 Fab; source: CHO-K1, lentiviral transduction, purified from culture supernatant (CaptureSelect C-tagXL, Superdex 200)
[1]
  binding result: binds
CD3ε on Jurkat T cells
  binding result: binds
